Measurements reported in article PMC11315126.

Biological target: GST-TrbBWT (not stated | E. coli F plasmid) (UniProt P18035)
Assay: SEC-MALS; SEC-MALS-SAXS; Superdex 200 10/300 Increase, 0.6 mL/min, 5.5 mg/mL loaded, 20 mM HEPES pH 7.0, 100 mM NaCl, 5% glycerol, 0.05% NP40, 20 °C

- stoichiometry N: 2
Substance: GST-TrbBWT (from UniProt P18035 23-181)
